This note sets out measurements from US20220195015A1 (published 2022).

Changes are numbered by the printed parent chain.

Experiment [1] addresses SARS-CoV-2 spike protein receptor binding domain (RBD) (SARS-CoV-2, UniProt P0DTC2 319-539). The experiment in a line: ELISA on plate-coated RBD.
The target is the same in experiment [2]. The experiment in a line: ELISA, RBD coated on plate, mAb titrated. (ELISA stands for enzyme-linked immunosorbent assay.)

B1: C574 (antibody, V domains shown)
VH: QVQLVQSGAEVKKPGASVKVSCKASGYTFTSYGFSWVRQAPGQGLEWLGWISAYNGNTNYAQKLQGRVTMTTDTSTSTAYMELRSLRSDDTAVYYCARAIAVAGTSGEFDYWGQGTLVTVSS
VL: not shown
The molecule B1 returned an EC50 in experiment [1] of 8.12 ng/mL.

B2: C576 (antibody, V domains shown)
VH: QVQLVQSGAEVKKPGSSVKVSCKASGGTFSIYAISWVRQAPGQGLEWMGGIIPILGTANYAQKFQGRVTITADESTSTAYMELSSLRSEDTAVYYCASFHVAYGDYIPFDYWGQGTLVTVSS
VL: not shown
In experiment [1], B2 showed an EC50 of 5.29 ng/mL.

B3: C581 (antibody, V domains shown)
VH: EVQLVQSGAEVKKPGESLKISCKGSGYRFTSYWIAWVRQMPGKGLEWMGIIYPGDSDTRYSPSFQGQVTISADQSISTAYLQWSSLKASDTAMYYCARGGPPGGVKLELTDYWGQGALVTVSS
VL: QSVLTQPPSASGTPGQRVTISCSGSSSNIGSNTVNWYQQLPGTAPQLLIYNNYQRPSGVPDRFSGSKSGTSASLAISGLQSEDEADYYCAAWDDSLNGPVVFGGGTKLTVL
Molecule B3 showed an EC50 in experiment [1] of 1.58 ng/mL.

B4: C565 (antibody, V domains shown)
VH: EVQLVESGGGLIQPGGSLRLSCAASGLIVSSNYMNWVRQAPGKGLEWVSLLYSGGSTYYADSVKGRFTISRDNSKNTLYLQMNSLRPEDTAVYYCARDLSVVGAFDIWGQGTMVTVSS
VL: EIVLTQSPGTLSLSPGERATLSCRASQSLPSTYLAWYQQKRGQAPRLLIYGASSRATGIPDRFSGSGSGTDFTLTISRLEPEDFAVYYCQQYGTSPRVTFGPGTKVDIK
In experiment [1], B4 yielded an EC50 of 1.27 ng/mL.

B5: C572 (antibody, V domains shown)
VH: EVQLVESGGGLIKPGRSLRLSCTASGFTFGDYAMTWFRQAPGKGLEWVGFIRSKAYGGTTGYAASVKYRFTISRDDSKSIAYLQMDSLKTEDTAVYYCTRWDGWSQHDYWGQGTLVTVSS
VL: DIVMTQSPLSLSVTPGEPASISCRSSQSLLHSNGNNYFDWYLQKPGQSPQLLIYLASNRASGVPDRFSGSGSGTDFTLKISRVEAEDVGVYYCMQVLQIPYTFGQGTKLEI
In experiment [1], B5 had an EC50 of 2.9 ng/mL.

B6: C552 (antibody, V domains shown)
VH: QVQLVESGGGVVQPGRSLRLSCAASGFTFSSYAMHWVRQAPGKGLEWVALISYDGSNKHYADSVKGRFTISRDNSKNTLYLQMNSLRAEDTAVYYCARAGTTNSDYFDYWGQGTLVTVSS
VL: SYELTQPPSVSVAPGKTARITCGGNNIGSKSVHWYQQKPGQAPVLVIYYDTDRPSGIPERFSGSNSGNTATLTISRVEAGDEADYYCQVWDSSSALWVFGGGTKLTVL
Consider B6, for which, in experiment [2], the EC50 was 1.08 ng/mL.

B7: C553 (antibody, V domains shown)
VH: B6 VH with S31N, A33E, M34I, L50G, N57T, H59Y, A88P, Y94F
VL: B6 VL with K16M, N26T, P39A, T51S, A95V
B7 yielded an EC50 in experiment [2] of 1.19 ng/mL.

B8: C573 (antibody, V domains shown)
VH: QVQLQESGPGLVKPSGTLSLTCAVSGGSISTVNWWSWVRQPPGKGLEWIGEIHHSGNTNHNPSLRSRVTISVDKSKNQFSLKLRSVTAADTAVYYCARDGGRPGDAFDLWGQGTMVTVSS
VL: QSALTQPASVSGSPGQSITISCTGTSSDVGGYNYVSWYQQHPGKVPKVMIYDVSNRPSGISNRFSGSKSGNTASLTISGLQAEDEADYYCNSYRSNSTRVFGTGTKVTV
As for B8, in experiment [1], the EC50 is 2.2 ng/mL.

B9: C567 (antibody, V domains shown)
VH: QVQLQESGPGLVKPSETLSLTCTVSGGSVINGSYYWSWIRQPPGKGLEWIGFVYYSGSTNYNPSLKSRVTISVDTSKNQFSLNLNSVTAADTAVYYCATGSKSSYYFDYWGQGTLVTVSS
VL: QSVLTQPPSVSAAPGQKVTISCSGSSSNIGNNYVSWYQQLPGAAPKLLIYENNMRPSGIPDRFSGSKSGTSATLGITGLQTGDEADYYCGTWDSSLSVPYVFGTGTRVTVL
In experiment [1], B9 registered an EC50 of 18.9 ng/mL.

B10: C578 (antibody, V domains shown)
VH: QVQLVESGGGVVQPGRSLRLSCAASGFTFSSSGMHWVRQAPGKGLEWVAIISYDGSNKYYADSVKGRFTISRDNSKNTLSLQMNSLRAEDTAVYYCAKDPLPFRDFFYYYMDVWGKGTTVTVSS
VL: QSALTQPASVSGSPGQSITISCTGTSSDVGGYNYVSWYQQHPGKAPKLMIYDVSNRPSGVSNRFSGSKSGNTASLTISGLQAEDEADYYCSSYTSSSTLGVFGTGTKVTVL
On to B10, for which the EC50 in experiment [1] is 1.08 ng/mL.

B11: C550 (antibody, V domains shown)
VH: EVQLVQSGAEVKKPGESLKISCKGSGYRFTNYWIGWVRQMPGKGLEWMGIIYPGDSDTRYSPSFQGQVTISADKSITTAYLQWSSLKASDTAMYYCARLSDRWYSPFDPWGQGTLVTVSS
VL: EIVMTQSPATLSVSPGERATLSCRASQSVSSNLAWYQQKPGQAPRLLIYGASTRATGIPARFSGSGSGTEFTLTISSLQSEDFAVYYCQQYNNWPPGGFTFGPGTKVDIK
Take B11: in experiment [2], the concentration giving a half-maximal response (EC50) was determined as 2.56 ng/mL.

B12: C580 (antibody, V domains shown)
VH: EVQLVQSGAEVKKAGESLKISCNSSGYSFTNYWIAWVRQVPGKGLEWMGIIYLGDSDTRYSPSFQGRVTISADKSISAAYLHWSSLKASDTAIYYCARGGPPGGVKLELTDFWGQGTLVTVSS
VL: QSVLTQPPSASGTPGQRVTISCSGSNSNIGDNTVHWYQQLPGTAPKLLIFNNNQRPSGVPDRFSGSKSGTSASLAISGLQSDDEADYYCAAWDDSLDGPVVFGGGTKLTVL
Regarding B12, the EC50 in experiment [1] is 1.82 ng/mL.

B13: C558 (antibody, V domains shown)
VH: EVQLVQSGAEVKKPGESLKISCKVSGYTFTNYWIGWVRQMPGKGLEWMGIIYPGDSDTRYSPSFQGQVTISADKSIITAYLQWSSLKASDTAMYYCARVPSSSDYGDYGGFEYWGQGTLVTVSS
VL: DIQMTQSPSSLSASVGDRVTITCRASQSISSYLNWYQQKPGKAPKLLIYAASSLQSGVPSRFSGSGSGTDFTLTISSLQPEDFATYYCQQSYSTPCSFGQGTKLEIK
As to B13, the EC50 in experiment [2] was determined as 2.41 ng/mL.

B14: C559 (antibody, V domains shown)
VH: B13 VH with Y52F, K74R, I77T, S84R
VL: DIQMTQSPSSLSASVGDRVTITCRASQTITIYLNWYQQKPGKAPKLLIYAASSLQSGVPSRFSGSGSGTDFTLTISSLQPEDFATYYCQQSYSTPCSFGQGTKLEIK
In experiment [2], B14 came in with an EC50 of 2.89 ng/mL.

B15: C571 (antibody, V domains shown)
VH: EVQLVESGGGLIQPGGSLKLSCVVSGFTVSRNYISWVRQAPGKGLEWVSVLFAGGSTFYADSVKGRFAISRDNSNNTLFLQMNSLRVEDTAIYYCARGDGELIFDQWGQGTLVTVSS
VL: QSVLTQPPSVSGAPGQRVTIVCTGTSSNIGAGYDVHWYQQLPGRAPKVLVSGNNIRPSEVPDRFSGSRSGTSASLAITSLQPEDEAQYYCQSYDSNLYAVFGGGTKLTVL
Take B15: in experiment [1], the EC50 was 4.63 ng/mL.

B16: C570 (antibody, V domains shown)
VH: QVQLQESGPGLVKPSETLSLTCTVSGASISSYYWSWIRQPPGKGLEWIGYIYYSGSTNYNPSLKSRVTISLDTSKNQFSLQLSSVTAADTAVYYCATYYFDNSGYSYGLDVWGQGTTVTVSS
VL: DIQMTQSPSSLSASVGDRVTIACRASQSISSYLHWYQQQPGKAPKLLIYAVTNLQSGVPSRFSGSGSGTDFTLTISSLQPEDFATYYCQQSYSLPQTFGQGTKVEIK
In experiment [1], B16 displayed an EC50 of 0.74 ng/mL.

B17: C568 (antibody, V domains shown)
VH: QVQLVQSGAEVKKPGASVKVSCTASGYTFSSYYIHWVRQAPGQGLEWMGIINPGAGSTSYAQKFQGRVAMTTDTSTRTVYMELSSLRSDDTAVYYCARDEAFLPSAIFVGDYWGQGTLVTVSS
VL: DIQMTQSPSSLSASVGDRVTITCRASQGIRNDLGWYQQKPGKAPKRLIYAASNLQSGVPSRFSGSGSGTEFTLTISSLQPEDFATYYCLQHSTYPHTWTFGQGTKVEIK
Take B17: it took 5.99 ng/mL to reach a half-maximal effect in experiment [1] (EC50).

B18: C556 (antibody, V domains shown)
VH: QVQLVQSGAEVKKPGASVKVSCKASGYTFTYYYMHWVRQAPGQGLEWMGIINPSGGSTSYAQKFQGRVTMTRDTSTSTVYMELSSLRSEDTAVYYCARPLLPGETGSLNRLDYWGQGTLVTVSS
VL: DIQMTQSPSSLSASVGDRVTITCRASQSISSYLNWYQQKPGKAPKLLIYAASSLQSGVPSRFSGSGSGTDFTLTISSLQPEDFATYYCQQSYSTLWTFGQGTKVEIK
Take B18: in experiment [2], a half-maximal effect (EC50) was put at 1.36 ng/mL.

B19: C555 (antibody, V domains shown)
VH: EVQLVESGGGLVKPGGSLRLSCAASGLTFSTTWMSWVRQAPGKGLEWVGRIKSKGDGGTTDFAGPVKGRFSISRDDSKNTLYLHMNSLKTEDTAVYYCTTDDPGSYYYGMDVWGQGTTVTVSS
VL: QTVVTQEPSLTVSPGGTVTLTCASSTGAVTSGHYPYWFQQKPGQAPRTLIYATSNKHSWTPARFSGSLLGGKAALTLSGAQPEDEADYYCLLSYSGARVFGGGTKLTVL
Take B19: in experiment [2], it took 2.88 ng/mL to reach a half-maximal effect (EC50).

B20: C709 (antibody, V domains shown)
VH: QVQLVQSGAEVRKPGASVKVSCMASGYTFNTYDINWVRQGTGQGLEWMGWMNPNSGNTGHAQKFQGRVAMTVNTSMNTAYMELSSLRSEDTAVYYCARGADMLNVAVGADFDYWGQGTLVTVSS
VL: QSALTQPPSASGSPGQSVTISCTGTSSDVGGYNFVSWFQQHPGKAPKLMIYEVSKRPSGVPDRFSGSKSANTASLTVSGLQAEDEADYFCSSYAGSNNWVFGGGTKLTVL
For the molecule B20, the response in experiment [1] was half-maximal at 7.56 ng/mL (EC50).

B21: C577 (antibody, V domains shown)
VH: QVQLVQSGAEVKKPGSSVKVSCKASGDTFSIYAFSWVRQAPGQGLQWMGAIIPLLGTTNYAQKFLGRVTITADESTSTTFMELSSLTSEDTAVYHCATFHVAYGDYIPFDSWGQGTLVIVSS
VL: not shown
As to B21, the 50% effective concentration (EC50) in experiment [1] was 1.32 ng/mL.

B22: C566 (antibody, V domains shown)
VH: QVQLQESGPGLVKSSQTLSLNCSVFGASISSGGYYWTWIRQHPGKGLEWIGYIHYRGTYYNPSLKSRVTMSVDTSKNQFSLKVRSVSAADTAIYYCARAIVVVTLNWFDLWGQGTLVTVSS
VL: NFMLTQPHSVSESPGKTVTISCSGSGGSIASNYVQWYQQRPGSAPTAVIYEDNQRPSGVPDRFSGSIDSSSNSASLTISGLKTEDEADYYCQSYDTSNPVIFGGGTKLTV
On to B22, for which the EC50 in experiment [1] is 5.88 ng/mL.

B23: C560 (antibody, V domains shown)
VH: EVQLVESGGGLVQPGRSLRLSCAASGFTFDDYAMHWVRQAPGKGLEWVSGVSWNSGTIGYADSVKGRFTISRDNAKNSLYLQMNSLRAEDTALYYCAKIADIVRAYDFWSGQHFDAFDIWGQGTMVTVSS
VL: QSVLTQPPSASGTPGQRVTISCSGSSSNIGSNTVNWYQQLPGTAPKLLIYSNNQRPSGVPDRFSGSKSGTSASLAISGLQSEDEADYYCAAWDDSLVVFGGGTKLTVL
B23 showed an EC50 in experiment [2] of 1.6 ng/mL.

B24: C561 (antibody, V domains shown)
VH: B23 VH with M34I, T69F, L93W, I102L, R104G, W109R, D115A, I119V
VL: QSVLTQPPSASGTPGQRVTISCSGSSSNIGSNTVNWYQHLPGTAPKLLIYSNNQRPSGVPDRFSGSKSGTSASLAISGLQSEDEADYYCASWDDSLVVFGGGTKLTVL
As for B24, in experiment [2], the EC50 came to 1.53 ng/mL.

B25: C569 (antibody, V domains shown)
VH: QVQLVESGGNVVQPGRSLRLSCAASGFTFSNYGMHWIRQAPGKGLEWVAVISYDGSDKYYADSVKGRVTISRDNSKNTLYLQMNSLRAEDTAVYYCAKGGPYGDHVRSDYWGLGTLVTVSS
VL: DIQMTQSPSSLSASVGDRVTITCQASQDISNYLNWYQQKPGKVPKLLIYDASNLETGVPSRFSGSGSGTDFTFTISSLQPEDIATYYCQQFHNLPLTFGQGTKLEIK
As for B25, the EC50 in experiment [1] worked out at 11.1 ng/mL.

The term EC50 denotes the concentration needed to bring the measured effect to its halfway point. Lower therefore signals a more potent agent.
